Test results reported in the DeepSol protein solubility set.

Assay: soluble on expression in E. coli; label from the status in PepcDB or PDB records

| Sequence | soluble on expression in E. coli |
| --- | --- |
| MTEASEINLSDIKGPIDVNTPITNHRTALIQNYSTKPKLTYQTVFGVNGPLVIVHNVKFPMFNEIVKITLPNGQIRMGQVLESSKNKAVVQVFEGTTGVDAKFTTCEFTGDIFRSPVSLDMLGRIFNGSGKPIDKGPPVLPEDYLDINGQPINPFNRIYPEEMIQTGISAIDVMNSIARGQKIPIFSAAGLPHNEIAAQIVRQGGLVQLPGRNNETVNFAIVFAAMGVNMETARFFKQDFEECGSMDNVCLFLNLANDPTIERIITPRIALTAAEFFAYHCGKHVLVVLTDMSSYAEALREISAAREEVPGRRGFPGYMYTDLATIYERAGRVKGREGSITQIPILTMPNNDITHPIPDLTGYITEGQIYIDKQLHKRLIYPPIDVLPSLSRLMKSAVGEGMTREDHSDLSNQLYACYAMGKDVQAMKAVVGVEALSPDDLLYLEFLAKFEKNFIAQGRYENRTIVESLNIGWELLRIFPREMLKRIPETLLEKYYKRKKQ | not soluble |
| MGSDKIHHHHHHMSVTINDTSSASSTQGLSSTTAVEKNSSADLQNQFLTLLVAQLKNQDPTNPMSNDQLVSQLAQLNTVSGIEKLNTTLGSISGQINNNQSMQASTLIGHSVMIPGKDILVGKETSTPFGVELEKAAEVVTVTVNDATGKAVRTIELGTLSAGVHSFNWDSKLADGTVAPDGAYTFTVAASTGGAQQVVQPLSYAVVNSVVRGDSGALLDLGLRGKATLDDVRQIL | not soluble |
| MGSDKIHHHHHHMASLPRLYYVTSGLDEANAFATWRAVISPLFEPRPCGPSRKTPTGSAYGIIIGDLVVAKVAFNAQDFVRDAQRIAVTPDHLLLHLYVSGGFNGEVTRQQTVIGPGKVALIDLACPLSTRAFASNTMCLIVPRKLLAGLPLHALKPKLDPLRNDLLAAYIRSLQERSAQLTEADVATTVAETADFLRRLLAPSAEADLAPERSADETILALTEALIRDNLALPELSPDWLAQQLDVSRASLYRLFAERGGVMRYVQERRLLAVQAALADPLETRRLSRLASDLGFKSEAHFSRSFRARFGITASAYRKAQLDASAAIQLTSPAVVQQWWTAVARDPLRHAG | not soluble |
| HHHHHHMVRAIDEDCSQYEPIPGSQKAALGYNILTQEDAQSVYDASYYGGQCETVYNGEWRELRYDSTCERLYYGDDEKYFRKPYNFLKYHFEALADTGISSEFYDNANDLLSKVKKDKSDSFGVTIGIGPAGSPLLVGVGVSHSQDTSFLNELNKYNEKKFIFTRIFTKVQTAHFKMRKDDIMLDEGMLQSLMELPDQYNYGMYAKFINDYGTHYITSGSMGGIYEYILVIDKAKMESLGITSRDITTCFGGSLGIQYEDKINVGGGLSGDHCKKFGGGKTERARKAMAVEDIISRVRGGSSGWSGGLAQNRSTITYRSWGRSLKYNPVVIDFEMQPIHEVLRHTSLGPLEAKRQNLRRALDQYLM | soluble |
| MNVSEALKGALPNFIPGLGTLYVDPSTLPEGPFLAYDRAGNLVKVVFMVPLKKLNESHKYVDIGTKTLRALGITRIDHVNLIPSGPHPGVSEPHYHIELVLVSVDQERKVLEGEPY | soluble |
| MSSSSPGEPLEPTDQDLDVLLKNLGNLVTPMALRVAATLRLVDHLLAGADTLAGLADRTDTHPQALSRLVRHLTVVGVLEGGEKQGRPLRPTRLGMLLADGHPAQQRAWLDLNGAVSHADLAFTGLLDVVRTGRPAYAGRYGRPFWEDLSADVALADSFDALMSCDEDLAYEAPADAYDWSAVRHVLDVGGGNGGMLAAIALRAPHLRGTLVELAGPAERARRRFADAGLADRVTVAEGDFFKPLPVTADVVLLSFVLLNWSDEDALTILRGCVRALEPGGRLLVLDRADVEGDGADRFFSTLLDLRMLTFMGGRVRTRDEVVDLAGSAGLALASERTSGSTTLPFDFSILEFTAVSEEAAPAAQASEALPAQE | soluble |
| MIEMLLYEDTRMRAVEILRSLPIGNSGVSGLVQLAATLGASVEFRPSIPPFPESLSKKMNKTQKYTSTQMSQKFDNASHSPTK | not soluble |
| MYCDHFGFSEHPFALTPNPAFLFLSSRHQEAFAHLLYGIDTRAGFIELSGEVGTGKTTVIRTFLNQLDPETHRTALVFNPTVSPLGLLQGIIREFGLPGTSTEKSELLETLNRFLLDENRAGHTVVLVIDEAQNLSPEVLEQIRLISNLETERDKLIQIVLVGQPELRHLLARQELRQLDQRITVRYHLEPMGLDDTKNYIRHRIRIAAGGREPVIFSAGAVKKIFGFSGGLPRLINAACDRALLLAYTTEAREVSPAMAAAAIADVATEARPPSPSRRFAVAAALILVAALGAGTFAVTRKGGESLPSASPPPTEPAASGEQPLKRTAALAGLAAVPEKDNLSAAVNTILRSWQAPPVASSPSPADLRSLARERGLTVTELSGTLNDLARLDTPALLHITLPQGGKRLVALTSLDKGHIGIDPPIAGHSTLTGGELSTLWSGRASVIWKNFHGIPSRLKPGGRSKAVGQLQELLKGAGYYAGRISGTYDTVTQEAIRSFQTAEGLDADGRTGEKTLLLLYRRAGGFFPPGLTQGKTAARTEAGDRSRGKVAQTRSNGEQSRLEHHHHHH | not soluble |
| MAISIKTPEDIEKMRVAGRLAAEVLEMIEPYVKPGVSTGELDRICNDYIVNEQHAVSACLGYHGYPKSVCISINEVVCHGIPDDAKLLKDGDIVNIDVTVIKDGFHGDTSKMFIVGKPTIMGERLCRITQESLYLALRMVKPGINLREIGAAIQKFVEAEGFSVVREYCGHGIGQGFHEEPQVLHYDSRETNVVLKPGMTFTIEPMVNAGKKEIRTMKDGWTVKTKDRSLSAQYEHTIVVTDNGCEILTLRKDDTIPAIISHDELVPRGSLEHHHHHH | soluble |
| MGSDKIHHHHHHMLSKFWRPQAPQMIGVDIGSYEIKAILLGKTADGYKIQAHSCVPIKKGAVVDHDIRDSAAVIEALKQVKRGLPKSAKFAAVSVSGSAVMTKVIYMDSSLTEEEMEAQIEIEADNLIPYSLDEVSIDFETLKTNKTDPTKVDVLLSACRTENIDSRVDALDAIDIDAKVVDVEGYALGRSAELIMAQLPPGAEEKSVALVDIGANMTTFAVVERGETIFTREQAFGGELFTQAILSTYGMSYDEAENAKIKGELPRNYTFEVLSPFQTQLLQQVKRTLQIYATASGKEKVDYIVLCGGTAKLEGMEALLLNELGINTVVANPFLGCLHGDELIKSQLQPNVNKYMVACGLALRSYAQWRI | not soluble |
| RQPSSLPEGLPAPLEKRVKELAQAARAAEGESRQKFFTQDINGILLDIEAQTRELSSQVRSGVYAYLASFLPCSKDALLKRARKLHLYEQGGRLKEPLQKLKEAIGRAMPEQMAKYQDECQAHTQAKVAKMLEEEKDKEQRDRICSDEEEDEEKGGRRIMGPRKKFQWNDEIRELLCQVVKIKLESQDLERNNKAQAWEDCVKGFLDAEVKPLWPKGWMQARTLFKESRRGHGHLTSILAKKKVMAPSKIKVKESSTKPDKKVSVPSGQIGGPIALPSDHQTGGLSIGASSRELPSQASGGLANPPPVNLEDSLDEDLIRNPASSVEAVSKELAALNSRAAGNS | not soluble |
| MDLISGEADPSESRAAERPGTAPLQGLVTFNRLELNRILNLYGRMVAAGEWRDYAIDFLKDTAVFSIFRRASEVPIYRIVKDPRLARKQGAYSVIGASGQILRRGHELERVLLVIDRKLALV | not soluble |
| MASEPIQITPNLAIPPGEIVERFVRASGAGGQNVNKVSTAVELRFDVAGSPSLPEPLRARLLSRRDRRMTADGVLVIDAQRFRTQDRNREDARERLAEIINACLSVPKRRVATKPSHGAKLRRLDAKRERSQIKRGRSASHWELEHHHHHH | soluble |
| GMKAADFTYVTVHGDNSRMSRLKAQYTMLFFYDPDCSNCRKFEKLFAEIPAFVEMVENGTLRVLAIYPDENREEWATKAVYMPQGWIVGWNKAGDIRTRQLYDIRATPTIYLLDGRKRVILKDTSMEQLIDYLATQAG | not soluble |
| SLAAVQVVGSWPSVQPREAPREAIPERGNGFRLLSARLCALRPDDSSSARTEIHLLFDQLISENYSEGSGVAPEDVSALLVQACRLVPLNQNHLVSKVSQLIHHLLNRLQVIVDEQHLDFLLAYTISAIHQCSSWTHREILQALAALVYCNGSKCQKYLPELLGNTGLLMKLSDLAQSDPEVRRAAVHCMANLCLSVPGQPYLEEPYQNVCFQAFLTILQSPKSSDMDDITFCMLLQNALKGIQSLLNGGRMKLTQTDELGALLAVLKKFMFHGLPGLNIEMPTVLYPTPLPQYDGRTPIK | soluble |
| MSLDLAADILVADAHMHTNPTRGLGAREVARRFRREGGWFAALLTLTTWSYGLAPTGVEAYRRMYEIHLRECRAAREEGLRVACFAGIHPAEVDRMIDKHRQPPEKALETALEAVEVLRRLCREGAIDGVGEVGRQHYRTSPLRVAIAEVVLEEAAAAALEEGCLLQLHLENEGPATVETVDRILRRAGATGARRGMVIFHHATLRVAKEAVARGYNATIPGVPKLLEHAAANEPPDYMVESDYLDDPARPGAVVEPWKMAQKLREIASRTPETREWVRRTNIDLVERVFQASPPEGHHHHHH | soluble |
| DPVSDITDLNYWKTPEQFDSFVFGLHSRFRSHSWNMFLLGEARSDVFGGIPFGGEATQGMERFPYNTLNAENPGISGFGDLYQNINQMNLFISRTLHTDVLTESARNYYLGQVYGLRAYYMYQLYRSWGDVVFTEEPSLGFEVGKLAKAATPAAEIFEQVKKDIESSLSYFGSDYTIKEKKSLWSKAATLMLKADVYLWSAHRDGGEGDARTAKNALVDIQNNISRSNLDLMDTYQGVFAYDNKGNKEIIFTIHNELFEYNLWNGNNDLFPQADYLGKFYNADGTLINTSVENNFGIMRLMVKLENFKKFLPGDTRRDVTLKDVYNKVENGKLELVGVYPHKYWGVMNGSTRVRCDDYPIYRYSDLLLMLAEAKVLLGEDPATEINRVRRRAFGDAYDASTVGFPNQEVDKRPADAVLQERLFEFMLEGKRWYDLRRFGDSYVLDYTPAEPARLLWPINQGALTNNPLLKQTVGY | soluble |
| MSPEEVKARGWKELDVILVTGDAYVDHSSFGTAIIGRVLEDAGFRVGIIAQPRWENPEDFKKLGKPRLFFSVSAGNTDSMVSNLTPGLKPRNKDAYSPGGKTGLRPNRAAIIYSNRIKEAFPDMPIVLGGIEASMRRFAHYDYLSDKVRQSILADAPADLVVYGMGELQIVEIAKRLQAGEDIKGIRDISGTVWKMEVKAWKELKGKGKEKAGEQDESENATEEVAKDKSLDPAEFFKEYVEIPSFSEVSQDKAVFAKAFRTYFLEQNPVTGKGIVQPHPKTIIIQNKPMRPLTEAELDHVYELPYTGETHPSYTEPVPALEMVKFSLTTHRGCF | not soluble |
| MSKRVRSSLILPAVCGLGLAAVLLSSCSSKAPQQPARQAGISGPGDYSRPHRDGAPWWDVDVSRIPDAVPMPHNGSVKANPYTVLGKTYYPMNDARAYRMVGTASWYGTKFHGQATANGETYDLYGMTAAHKTLPLPSYVRVTNLDNGKSVIVRVNDRGPFYSDRVIDLSFAAAKKLGYAETGTARVKVEGIDPVQWWAQRGRPAPMVLAQPKQAVAQAAPAAAQTQAVAMAQPIETYTPPPAQHAAAVLPVQIDSKKNASLPADGLYLQVGAFANPDAAELLKAKLSGVTAAPVFISSVVRNQQILHRVRLGPIGSADEVSRTQDSIRVANLGQPTLVRPD | not soluble |
| MNAHEIDYRLYGDDMQFVEIELDPYESVVAEAGGMMMMDDGIVMETVFGDGSSSGKGLLGRLVGAGKRLLTGESLFMTVFTNQGSGKRRVAFAAPYPGKIIPVDLSELGGKLICQKDSFLCAAKGVSVGIEFQRKLGAGFFGGEGFIMQKLEGDGLAFLHAGGTIHRRDLQPGETLRIDTGCLVAMTKDVNYDIEYVGSIKTAFFGGEGLFLATVTGPGAVWVQSLPFSRLADRVLAAAPSAGGRSVGEGSILGGIGDWLDGDD | not soluble |
